To fix the notation:
B1: DLC1 (parent)
chain: AEVVKIRDSFSNQNTETKDTKSR
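Further: lentivirally expressed fusions sorted by FACS into six bins by GFP to DsRed ratio, PSI derived from sequencing read proportions per bin multiplied by bin number.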

Variants of B1 are the subject of the series. The series can be described thus: protein stability index of a GFP-peptide fusion (GPS, HEK-293T) (PSI 1-6); higher = more stable. The settings on record: c terminus: native.
Take AEVVKIRDSFSNQNTKTKDTKSR [E16K]: the protein stability index was found to be 3.12.
The figure for AEVVKIRDSFSNQNTLTKDTKSR [E16L] is 1.91; for AEVVKIRDSFSNQNTNTKDTKSR [E16N] it is 2.27; for AEVVKIRDSFSNQNTRTKDTKSR [E16R] it is 2.31.
Turning to AEVVKIRDSFSNQNTQTKDTKSR [E16Q], the protein stability index is 3.17.
Regarding AEVVKIRDSFSNQNTITKDTKSR [E16I], the protein stability index was determined as 1.97.
The figure for AEVVKIRDSFSNQNTWTKDTKSR [E16W] is 1.95; for AEVVKIRDSFSNQNTATKDTKSR [E16A] it is 2.43.
The figure for AEVVKIRDSFSNQNTCTKDTKSR [E16C] is 1.84; for AEVVKIRDSFSNQNTVTKDTKSR [E16V] it is 3.04.
The figure for AEVVKIRDSFSNQNTSTKDTKSR [E16S] is 1.9; for AEVVKIRDSFSNQNTPTKDTKSR [E16P] it is 2.41.
For the variant AEVVKIRDSFSNQCTETKDTKSR [N14C], the protein stability index stood at 2.16.
The figure for AEVVKIRDSFSNQRTETKDTKSR [N14R] is 2.48.
In the case of AEVVKIRDSFSNQQTETKDTKSR [N14Q], the protein stability index is 2.37.
The figure for AEVVKIRDSFSNQWTETKDTKSR [N14W] is 2.37; for AEVVKIRDSFSNQVTETKDTKSR [N14V] it is 1.66.
The figure for AEVVKIRDSFSNQNTETKSTKSR [D19S] is 2.19; for AEVVKIRDSFSNQNTETKNTKSR [D19N] it is 3.63.
The figure for AEVVKIRDSFSNQNTETKTTKSR [D19T] is 3.09; for AEVVKIRDSFSNQNTETKPTKSR [D19P] it is 3.03; for AEVVKIRDSFSNQNTETKCTKSR [D19C] it is 1.83.
Consider AEVVKIRDSFSNQNTETKMTKSR [D19M], for which the protein stability index turned out to be 1.95.
Take AEVVKIRDSFSNQNTETKRTKSR [D19R]: the protein stability index came to 1.84.
Take AEVVKIRDSFSNQNTETKGTKSR [D19G]: the protein stability index was 2.
AEVVKIRDSFSNQNTETKATKSR [D19A]: the protein stability index was 1.79.
The figure for AEVVKIRDSFSNQNTETKETKSR [D19E] is 2.31; for AEVVKIRDSFSNQNTETKVTKSR [D19V] it is 1.91.
The figure for AEVVKIRDSFSNRNTETKDTKSR [Q13R] is 3.77; for AEVVKIRDSFSNMNTETKDTKSR [Q13M] it is 1.94.
Regarding AEVVKIRDSFSNCNTETKDTKSR [Q13C], the protein stability index turned out to be 1.93.
The figure for AEVVKIRDSFSNANTETKDTKSR [Q13A] is 2.41; for AEVVKIRDSFSNHNTETKDTKSR [Q13H] it is 2.32.
Regarding AEVVKIRDSFSNPNTETKDTKSR [Q13P], the protein stability index is 2.4.
The figure for AEVVKIRDSFSNGNTETKDTKSR [Q13G] is 2.33.
The figure for AEVVKIRDSFSNFNTETKDTKSR [Q13F] is 2.26; for AEVVKIRDSFSNVNTETKDTKSR [Q13V] it is 3.62; for AEVVKIRDSFSNTNTETKDTKSR [Q13T] it is 2.45.
With AEVVKIRDSFSNENTETKDTKSR [Q13E], the protein stability index is 2.9.
The figure for AEVVKIRDSFSNLNTETKDTKSR [Q13L] is 2.31; for AEVVKIRDSFNNQNTETKDTKSR [S11N] it is 4.69.
The figure for AEVVKIRDSFKNQNTETKDTKSR [S11K] is 3.15; for AEVVKIRDSFHNQNTETKDTKSR [S11H] it is 2.61; for AEVVKIRDSFENQNTETKDTKSR [S11E] it is 2.4.
The figure for AEVVKIRDSFANQNTETKDTKSR [S11A] is 1.9; for AEVVKIRDSFVNQNTETKDTKSR [S11V] it is 2.35.
With AEVVKIRDSFFNQNTETKDTKSR [S11F], the protein stability index was 2.85.
With AEVVKIRDSFTNQNTETKDTKSR [S11T], the protein stability index is 2.48.
For AEVVKIRDSFLNQNTETKDTKSR [S11L], the protein stability index came out at 1.88.
Turning to AEVVKIRDSFDNQNTETKDTKSR [S11D], the protein stability index was 2.05.
The figure for AEVVKIRDSFSNQNTETWDTKSR [K18W] is 2.05; for AEVVKIRDSFSNQNTETPDTKSR [K18P] it is 2.15.
For AEVVKIRDSFSNQNTETADTKSR [K18A], the protein stability index came out at 1.17.
Consider AEVVKIRDSFSNQNTETSDTKSR [K18S], for which the protein stability index is 1.98.
The figure for AEVVKIRDSFSNQNTETQDTKSR [K18Q] is 1.84; for AEVVKIRDSFSNQNTETFDTKSR [K18F] it is 2.59.
On to AEVVKIRDSFSNQNTETGDTKSR [K18G], for which the protein stability index is 2.13.
Take AEVVKIRDSFSNQNTETYDTKSR [K18Y]: the protein stability index was 1.94.
On to AEVVKIRDSFSNQNTETRDTKSR [K18R], for which the protein stability index was 1.5.
The figure for AEVVKIRDSFSNQNTETTDTKSR [K18T] is 2.2.
The figure for LEVVKIRDSFSNQNTETKDTKSR [A1L] is 2.08; for MEVVKIRDSFSNQNTETKDTKSR [A1M] it is 2.37.
The figure for KEVVKIRDSFSNQNTETKDTKSR [A1K] is 3.16.
Consider VEVVKIRDSFSNQNTETKDTKSR [A1V], for which the protein stability index stood at 1.92.
The figure for WEVVKIRDSFSNQNTETKDTKSR [A1W] is 2.76; for YEVVKIRDSFSNQNTETKDTKSR [A1Y] it is 1.79.
Consider HEVVKIRDSFSNQNTETKDTKSR [A1H], for which the protein stability index came out at 2.51.
In the case of FEVVKIRDSFSNQNTETKDTKSR [A1F], the protein stability index was 2.06.
The figure for TEVVKIRDSFSNQNTETKDTKSR [A1T] is 2.08.
Take DEVVKIRDSFSNQNTETKDTKSR [A1D]: the protein stability index was found to be 3.12.
Regarding AEVVKERDSFSNQNTETKDTKSR [I6E], the protein stability index turned out to be 3.33.
Regarding AEVVKHRDSFSNQNTETKDTKSR [I6H], the protein stability index was 2.42.
Turning to AEVVKARDSFSNQNTETKDTKSR [I6A], the protein stability index came to 2.47.
Consider AEVVKLRDSFSNQNTETKDTKSR [I6L], for which the protein stability index turned out to be 2.74.
Turning to AEVVKVRDSFSNQNTETKDTKSR [I6V], the protein stability index came to 2.74.
For the variant AEVVKCRDSFSNQNTETKDTKSR [I6C], the protein stability index was found to be 2.43.
The figure for AEVVKTRDSFSNQNTETKDTKSR [I6T] is 3.6; for ASVVKIRDSFSNQNTETKDTKSR [E2S] it is 2.75.
The figure for ACVVKIRDSFSNQNTETKDTKSR [E2C] is 2.43; for AAVVKIRDSFSNQNTETKDTKSR [E2A] it is 1.88.
The figure for AYVVKIRDSFSNQNTETKDTKSR [E2Y] is 1.52.
ARVVKIRDSFSNQNTETKDTKSR [E2R]: the protein stability index amounted to 1.88.
Regarding AKVVKIRDSFSNQNTETKDTKSR [E2K], the protein stability index was 1.81.
Regarding AEVVVIRDSFSNQNTETKDTKSR [K5V], the protein stability index stood at 1.94.
For the variant AEVVGIRDSFSNQNTETKDTKSR [K5G], the protein stability index stood at 3.3.
As to AEVVCIRDSFSNQNTETKDTKSR [K5C], the protein stability index was 2.88.
As to AEVVNIRDSFSNQNTETKDTKSR [K5N], the protein stability index is 2.93.
With AEVVQIRDSFSNQNTETKDTKSR [K5Q], the protein stability index came to 2.43.
Regarding AEVVIIRDSFSNQNTETKDTKSR [K5I], the protein stability index came to 2.02.
For AEVVEIRDSFSNQNTETKDTKSR [K5E], the protein stability index worked out at 3.01.
The figure for AEVVWIRDSFSNQNTETKDTKSR [K5W] is 1.84; for AEVVYIRDSFSNQNTETKDTKSR [K5Y] it is 2.13; for AEVVPIRDSFSNQNTETKDTKSR [K5P] it is 2.67.
The figure for AEVVKIRDSFSNQNTETKDTKCR [S22C] is 1.82; for AEVVKIRDSFSNQNTETKDTKNR [S22N] it is 2.88; for AEVVKIRDSFSNQNTETKDTKKR [S22K] it is 2.92.
The figure for AEVVKIRDSFSNQNTETKDTKQR [S22Q] is 3.03.

Values taken from the supplement of paper PMC10567573.
